Measured values as given in patent CN101001872A (MACROGENICS INC, dated 2007).

Assays:
细胞表面的人FcγRIIB (CD32B) [1] = target: T1, 细胞表面的人FcγRIIB (CD32B) (human, UniProt P31994 43-310); assay: cell-based or functional assay
T1 construct: whole, on cells; also called huFcγRIIB; CHO/IIB
T1 sequence (looked up): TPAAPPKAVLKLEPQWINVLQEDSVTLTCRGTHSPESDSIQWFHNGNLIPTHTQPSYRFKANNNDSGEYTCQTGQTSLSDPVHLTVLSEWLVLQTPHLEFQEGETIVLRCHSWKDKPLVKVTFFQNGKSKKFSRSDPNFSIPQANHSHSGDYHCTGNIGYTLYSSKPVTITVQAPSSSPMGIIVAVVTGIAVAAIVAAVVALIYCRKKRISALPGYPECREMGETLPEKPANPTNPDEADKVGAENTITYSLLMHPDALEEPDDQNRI

细胞表面的人FcγRIIB (CD32B) [2] = target: T1, 细胞表面的人FcγRIIB (CD32B); assay: two-colour FACS on CHO cells with full-length FcγRIIB, after mouse IgG1 isotype control
[3] = target: T2, THP1单核细胞株上的CD32A (H131形式) (human, UniProt P12318 34-317); assay: FACS on THP-1 cells
T2 construct: whole, on cells; also called THP-I
T2 sequence (looked up): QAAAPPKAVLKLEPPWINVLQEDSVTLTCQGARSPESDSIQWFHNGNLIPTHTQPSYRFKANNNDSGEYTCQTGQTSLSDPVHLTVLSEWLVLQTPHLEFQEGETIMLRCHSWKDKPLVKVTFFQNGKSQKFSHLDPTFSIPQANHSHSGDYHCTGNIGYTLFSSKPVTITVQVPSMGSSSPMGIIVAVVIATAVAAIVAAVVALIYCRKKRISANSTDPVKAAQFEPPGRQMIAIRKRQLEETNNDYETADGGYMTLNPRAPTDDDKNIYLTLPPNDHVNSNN

细胞表面的人FcγRIIB (CD32B) [4] = target: T1, 细胞表面的人FcγRIIB (CD32B); assay: two-colour FACS on CHO cells with full-length FcγRIIB
[5] = target: T3, 可溶性单体形式的人CD32B (293H细胞中表达的可溶性细胞外结构域) (human, UniProt P31994 43-217); assay: SPR (BIAcore 3000), captured antibody, soluble monomeric receptor injected
T3 construct: extracellular domain; also called FcγRIIB
T3 sequence (looked up): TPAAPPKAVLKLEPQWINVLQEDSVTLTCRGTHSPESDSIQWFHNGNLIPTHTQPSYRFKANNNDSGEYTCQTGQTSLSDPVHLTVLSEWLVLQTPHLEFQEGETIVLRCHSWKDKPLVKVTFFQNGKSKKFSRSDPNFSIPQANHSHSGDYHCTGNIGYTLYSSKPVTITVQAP

[6] = target: FcγRIIB (ELISA包被, 哺乳动物系统产生) (human) (UniProt P31994); assay: direct ELISA, receptor-coated plate
可溶性单体形式的人CD32A-R131 = target: T4, 可溶性单体形式的人CD32A-R131 (human, UniProt P12318 34-217); assay: SPR (BIAcore 3000), antibody captured by goat anti-mouse F(ab′)2, soluble monomeric receptor injected
T4 construct: extracellular domain
T4 sequence (looked up): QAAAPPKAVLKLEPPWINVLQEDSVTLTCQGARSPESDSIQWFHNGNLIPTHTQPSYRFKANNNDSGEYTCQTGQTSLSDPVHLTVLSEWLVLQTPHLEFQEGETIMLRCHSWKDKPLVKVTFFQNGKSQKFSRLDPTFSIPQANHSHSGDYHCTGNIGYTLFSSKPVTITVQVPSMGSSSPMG

人外周血白细胞上的huFcγRIIA = target: T5, 人外周血白细胞上的huFcγRIIA (human, UniProt P12318 34-317); assay: FACS on human peripheral blood leukocytes
T5 construct: whole, on cells; also called FcγRIIA同种型
T5 sequence (looked up): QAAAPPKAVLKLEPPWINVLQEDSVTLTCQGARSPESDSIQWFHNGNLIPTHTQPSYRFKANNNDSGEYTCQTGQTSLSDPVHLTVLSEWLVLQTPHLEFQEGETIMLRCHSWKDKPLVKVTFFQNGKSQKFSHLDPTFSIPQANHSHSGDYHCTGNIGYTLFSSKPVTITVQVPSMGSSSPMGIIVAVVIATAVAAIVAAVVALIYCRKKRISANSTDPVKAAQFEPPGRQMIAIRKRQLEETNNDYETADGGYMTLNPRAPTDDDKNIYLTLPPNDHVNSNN

嵌合的抗CD32B抗体ch2B6 (antibody)
ADCC (细胞表面的人FcγRIIB (CD32B) [1]): > 10 ng/mL

聚集的生物素化人IgG (ligand)
percent of cells labelled (细胞表面的人FcγRIIB (CD32B) [2]): 60 %

B1: 由克隆2B6产生的小鼠单克隆抗体 (ATCC PTA-4591) (antibody)
heavy: QVQLQQPVTELVRPGASVMLSCKASDYPFTNYWIHWVKQRPGQGLEWIGVIDPSDTYPNYNKKFKGKATLTVVVSSSTAYMQLSSLTSDDSAVYYCARNGDSDYYSGMDYWGQGTSVTVSS
light: DILLTQSPAILSVSPGERVSFSCRTSQSIGTNIHWYQQRTNGFPRLLIKNVSESISGIPSRFSGSGSGTDFILSINSVESEDIADYYCQQSNTWPFTFGGGTKLEIK
notes: The entries may hold only the variable regions; also called 2B6抗体; m2B6
binding result [3]: no binding | binding result (细胞表面的人FcγRIIB (CD32B) [4]): binds | binding result [5]: binds | fold binding against the commercial antibodies AT10, FL18.26 and IV.3 [6]: < 4.5 倍 | binding result (可溶性单体形式的人CD32A-R131): no binding (tested: 100nM可溶性受体) | binding result (人外周血白细胞上的huFcγRIIA): no binding
